Substitutions are numbered along the chain they refer to. Read-outs that look alike come from different tables or passages of the source.
How the values were obtained:
human NGF (R&D system) [1] = target: T1, human NGF (R&D system) (human, UniProt P01138 122-241); assay: cell-based or functional assay
[2] = target: recombinantly produced human-NGF (human, UniProt P01138 122-241, limits assumed); assay: ELISA, human NGF coated, IgG titrated
Summary of the method: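 Plates coated overnight at 4 °C with recombinant human NGF at 1 μg/ml, blocked with PBS/1% BSA. Serially diluted purified antibodies or 1:1 supernatants bound 2 h at 37 °C; detection with AP anti-human IgG Fc (1:3000, 1 h RT), PNPP substrate, OD 405 nm.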

human NGF-Fc4 (IgG4-Fc) [3] = target: T2, human NGF-Fc4 (IgG4-Fc) (human, UniProt P01138 122-241, limits assumed); assay: competition ELISA: antibody pre-incubated with human NGF-Fc4, binding to coated p75-Fc
T2 construct: not shown: human IgG4 Fc
T2 sequence (P01138 122-241 limits assumed): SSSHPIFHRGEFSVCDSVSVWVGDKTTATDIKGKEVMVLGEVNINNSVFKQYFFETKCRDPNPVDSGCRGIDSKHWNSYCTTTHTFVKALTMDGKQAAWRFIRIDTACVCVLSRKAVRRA
Procedure: p75 inhibition ELISA assay: The p75 inhibition assay was designed to identify anti-NGF antibodies that were capable of inhibiting NGF binding to p75. In this assay, human p75-Fc (IgG1-Fc, Sinobiological) was coated at 1 μg/mL in the 96-well plates and incubated overnight at 4° C. Anti-NGF antibodies, from supernatants directly or after purified, in different dilutions, were pre-incubated with human NGF-Fc4 (IgG4-Fc) at a final concentration of 350 ng/mL for 2 hours in 37° C. A total of 50 μl of the reaction mixtures were then transferred into the p75-Fc coated 96-well plates and incubated in room temperature for 2 hrs. After washing, a secondary mouse anti-human IgG4-AP (Southern biotech) was added at a dilution of 1:1000. After 1 hour in room temperature, the plates were washed, and after adding PNPP substrate, ODs at 405 nm were read.
(§1) p75 inhibition ELISA assay: The optimized anti-NGF antibodies Ab4, Ab61, and the reference antibody Tanezumab, a humanized antibody from mouse hybridoma were further analyzed for their abilities to block NGF binding to its receptor p75. P75 inhibition assay was performed as described in Example 1.

human NGF-Fc4 (IgG4-Fc) [4] = target: T2, human NGF-Fc4 (IgG4-Fc); assay: competition ELISA: antibody pre-incubated with human NGF-Fc4, binding to coated TrkA-Fc
Procedure: TrkA inhibition ELISA assay: The TrkA inhibition ELISA assay was designed to identify the anti-NGF antibodies that have the capability of blocking NGF binding to its receptor TrkA. In this assay, human TrkA-Fc (IgG1-Fc, Sinobiological) was coated at 1 μg/ml in the 96-well plates and incubated overnight at 4° C. Antibodies, from cell culture supernatants or after purified, in different dilutions, were pre-incubated with human NGF-Fc4 (IgG4-Fc) at a final concentration of 70 ng/mL for 2 hours in 37° C. A total of 50 μl of the reaction mixtures were then transferred into the TrkA-Fc coated 96-well plates and incubated in room temperature for 2 hours. After washing, a secondary mouse anti-human IgG4-AP (Southern biotech) was added at a dilution of 1:1000 After one hour in room temperature, the plates were washed, and after adding PNPP substrate, ODs at 405 nm were read.
as §1, with “TrkA” for “p75”, “Ab6, Ab10, Ab16, Ab36, Ab37, Ab44, Ab45, Ab46, Ab47, Ab48, Ab49, Ab52, Ab54, Ab55, Ab56, Ab57, Ab58, Ab59, Ab60, Ab61” for “Ab61,”, “Tanezumab (Pfizer),” for “Tanezumab,”, “TrkA. TrkA” for “p75. P75”

BDNF = target: T3, BDNF (UniProt P23560 129-247); assay: ELISA
T3 construct: also called brain-derived neurotrophic factor
T3 sequence (looked up): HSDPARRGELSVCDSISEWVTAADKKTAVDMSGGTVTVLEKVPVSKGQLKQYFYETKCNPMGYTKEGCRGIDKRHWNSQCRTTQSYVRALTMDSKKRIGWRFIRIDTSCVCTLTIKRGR

NT3 = target: T4, NT3 (UniProt P20783 139-257); assay: ELISA
T4 construct: also called neurotrophin-3
T4 sequence (looked up): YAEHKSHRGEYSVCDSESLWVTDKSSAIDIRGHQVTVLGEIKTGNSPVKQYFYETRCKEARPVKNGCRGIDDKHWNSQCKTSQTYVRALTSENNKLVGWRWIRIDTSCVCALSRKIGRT

NT4 = target: T5, NT4 (UniProt P34130 81-210); assay: ELISA
T5 construct: also called neurotrophin-4
T5 sequence (looked up): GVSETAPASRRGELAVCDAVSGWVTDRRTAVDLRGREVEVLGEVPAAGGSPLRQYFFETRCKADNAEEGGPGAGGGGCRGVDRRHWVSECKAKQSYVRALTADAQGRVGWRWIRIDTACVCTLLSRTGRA

human NGF (R&D system) [5] = target: T1, human NGF (R&D system); assay: cell-based or functional assay; remark: listed apart in the source
human NGF (R&D system) [6] = target: T1, human NGF (R&D system); assay: cell-based or functional assay; remark: listed apart in the source
human NGF (R&D system) [7] = target: T1, human NGF (R&D system); assay: cell-based or functional assay; remark: listed apart in the source

T1 sequence (P01138 122-241 limits assumed): as the sequence (P01138 122-241 limits assumed) above
Sequence of recombinantly produced human-NGF (P01138 122-241 limits assumed): as the sequence (P01138 122-241 limits assumed) above

B1: Tanezumab (antibody, part only; not given: constant regions, V domains shown, not shown: another chain or arm of the molecule)
VH: QVQLQESGPGLVKPSETLSLTCTVSGFSLIGYDLNWIRQPPGKGLEWIGIIWGDGTTDYNSAVKSRVTISKDTSKNQFSLKLSSVTAADTAVYYCARGGYWYATSYYFDYWGQGTLVTVSS
VL: DIQMTQSPSSLSASVGDRVTITCRASQSISNNLNWYQQKPGKAPKLLIYYTSRFHSGVPSRFSGSGSGTDFTFTISSLQPEDIATYYCQQEHTLPYTFGQGTKLEIK
- Chicken DRG Neurite Outgrowth Inhibition Assay IC50 (human NGF (R&D system) [1]): 0.0727 nM
- TF1 Cell Proliferation Inhibition Assay IC50 (human NGF (R&D system) [1]): 0.17 nM
- EC50 [2]: 0.00937 ng/mL
- IC50 (human NGF-Fc4 (IgG4-Fc) [3]): 525 ng/mL
- IC50 (human NGF-Fc4 (IgG4-Fc) [4]): 60.2 ng/mL

B2: Ab4 (antibody, human IgG1, V domains shown)
VH: EVQLVQSGAEVKKPGATVKISCKVSGYTFITYWISWVQQAPGKGLEWMGAIDPSDSDARYSPSFQGRVTITADTSTDTAYMELSSLRSEDTAVYYCAKSDPGYSGYSLLYGFDSWGQGTLVTVSS
VL: DVVMTQSPLSLPVTLGQPASISCRSSQSLVQRNGNTYLSWYQQRPGQSPRLLIYQVSNRYSGVPDRFSGSGSGTDFTLKISRVEAEDVGVYYCGQGAHLPLTFGQGTKVEIK
- binding result (BDNF): no binding (tested: 100 µg/mL)
- binding result (NT3): no binding (tested: 100 µg/mL)
- binding result (NT4): no binding (tested: 100 µg/mL)
- TF1 Cell Proliferation Inhibition Assay IC50 (human NGF (R&D system) [5]): 0.174 nM
- ERK1/2 Signaling Pathway Inhibition Assay IC50 (PC12 cells) (human NGF (R&D system) [6]): 0.131 nM
- Chicken DRG Neurite Outgrowth Inhibition Assay IC50 (human NGF (R&D system) [7]): 0.0663 nM
- EC50 [2]: 0.0124 ng/mL
- IC50 (human NGF-Fc4 (IgG4-Fc) [3]): 481 ng/mL
- IC50 (human NGF-Fc4 (IgG4-Fc) [4]): 74.6 ng/mL

B3: Ab61 (antibody, human IgG1, V domains shown)
VH: B2 VH
VL: B2 VL with G34A
- TF1 Cell Proliferation Inhibition Assay IC50 (human NGF (R&D system) [5]): 0.346 nM
- ERK1/2 Signaling Pathway Inhibition Assay IC50 (PC12 cells) (human NGF (R&D system) [6]): 0.175 nM
- Chicken DRG Neurite Outgrowth Inhibition Assay IC50 (human NGF (R&D system) [7]): 0.0786 nM
- EC50 [2]: 0.014 ng/mL
- IC50 (human NGF-Fc4 (IgG4-Fc) [3]): 577 ng/mL
- IC50 (human NGF-Fc4 (IgG4-Fc) [4]): 70 ng/mL
